In patent US20160237119A1 (UNIVERSITY OF TOKYO, published 2016):
Blank lines part the entries; values can stand above or below the binder they belong to. Bridges are numbered along the chain shown (N, C = ends). Roman numbers before positions name the chains, in order. Where no end group is shown, it is not given here. [ ]: non-standard residue; d: D form. NMeW = CN[C@@H](Cc1c[nH]c2ccccc12)C(=O)O; NMeR = CN[C@@H](CCCNC(=N)N)C(=O)O; NMeE = CN[C@@H](CCC(=O)O)C(=O)O; NMeQ = CN[C@@H](CCC(N)=O)C(=O)O; NMeD = CN[C@@H](CC(=O)O)C(=O)O; NMeN = CN[C@@H](CC(N)=O)C(=O)O; NMeC = CN[C@@H](CS)C(=O)O

Tests used:
c-Met-Fc chimera protein [1] = target: T1, c-Met-Fc chimera protein (UniProt P08581 25-932, limits assumed); assay: SPR presumed (Biacore as in 9-1; method not given), c-Met-Fc on chip
T1 construct: Captured on the SPR chip by an anti-IgG antibody; not shown: Fc part
T1 sequence (P08581 25-932 limits assumed, change not shown): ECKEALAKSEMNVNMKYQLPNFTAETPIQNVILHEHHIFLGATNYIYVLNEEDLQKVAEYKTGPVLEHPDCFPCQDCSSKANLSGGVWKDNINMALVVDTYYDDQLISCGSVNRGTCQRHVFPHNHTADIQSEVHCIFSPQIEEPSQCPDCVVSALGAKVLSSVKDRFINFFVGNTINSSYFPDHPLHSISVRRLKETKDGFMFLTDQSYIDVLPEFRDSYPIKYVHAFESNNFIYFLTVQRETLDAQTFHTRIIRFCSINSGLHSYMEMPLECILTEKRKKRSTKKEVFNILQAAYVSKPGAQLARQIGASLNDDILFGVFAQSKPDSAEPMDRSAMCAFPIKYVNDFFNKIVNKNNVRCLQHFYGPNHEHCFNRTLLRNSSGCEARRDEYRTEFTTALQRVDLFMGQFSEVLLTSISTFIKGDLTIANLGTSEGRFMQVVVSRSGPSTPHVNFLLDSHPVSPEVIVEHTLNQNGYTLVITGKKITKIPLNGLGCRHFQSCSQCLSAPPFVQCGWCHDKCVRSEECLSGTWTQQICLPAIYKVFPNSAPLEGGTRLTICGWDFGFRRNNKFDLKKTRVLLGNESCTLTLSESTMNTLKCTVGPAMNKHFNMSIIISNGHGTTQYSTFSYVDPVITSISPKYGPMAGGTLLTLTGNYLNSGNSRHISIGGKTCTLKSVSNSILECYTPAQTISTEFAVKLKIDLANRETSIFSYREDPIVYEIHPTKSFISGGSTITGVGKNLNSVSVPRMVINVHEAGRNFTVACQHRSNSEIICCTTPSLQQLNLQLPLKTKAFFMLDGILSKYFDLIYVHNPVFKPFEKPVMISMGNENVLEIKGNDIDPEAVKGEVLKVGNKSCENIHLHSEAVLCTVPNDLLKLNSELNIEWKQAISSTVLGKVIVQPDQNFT

c-Met-Fc chimera protein [2] = target: T1, c-Met-Fc chimera protein; assay: SPR (Biacore), c-Met-Fc captured by anti-IgG on CM5, single-cycle kinetics
Method: (§1) As a sensor chip, Sensor Chip CM5 was used and an anti-IgG antibody was immobilized on a measurement lane and a control lane by using Human Antibody Capture Kit.
(§2) On the measurement lane was immobilized c-Met-Fc, while on the control lane was immobilized Fc protein.
(§3) As a running buffer, HBS-EP+ buffer containing 0.1% DMSO was used and a dissociation constant of the thioether macrocyclic peptide was calculated at 5 different concentrations by using the single-kinetics method.

c-Met-Fc chimera protein [3] = target: T1, c-Met-Fc chimera protein; assay: SPR presumed (Biacore as in 9-1; method not given), c-Met-Fc on chip; remark: listed apart in the source
c-Met-Fc chimera protein [4] = target: T1, c-Met-Fc chimera protein; assay: SPR (Biacore), c-Met-Fc captured by anti-IgG on CM5, single-cycle kinetics; remark: listed apart in the source
Method: as §1, §2, §3

B2: N3, N-methylated D4-3 peptide (peptide)
peptide: {CH2CO}-YR[NMeQ]FNRRTHEVWNLDCG
modifications: thioether N-16 (inferred)
Kd (c-Met-Fc chimera protein [1]): 120 nM
koff (c-Met-Fc chimera protein [1]): 0.0031 s⁻¹
kon (c-Met-Fc chimera protein [1]): 27000 M⁻¹ s⁻¹

B3: D5-4 dimeric peptide, linker BMH (peptide)
peptide 1: [dY]WYYAWDQTYKAFPCG
peptide 2: [dY]WYYAWDQTYKAFPCG
modifications: thioether I:N-I:15, II:N-II:15 via Ac; not fully specified (N-terminus, bridges); also: dimer: two copies joined by BMH through an added C-terminal Cys (handle not in letters)
notes: Two macrocyclic peptides joined through their C-terminal Cys by BMH; also called D5-4 BMH; not shown: C-terminal handle of each copy (spacer residue plus Cys)
Kd (c-Met-Fc chimera protein [2]): 12 nM
koff (c-Met-Fc chimera protein [2]): 0.00055 s⁻¹
kon (c-Met-Fc chimera protein [2]): 46000 M⁻¹ s⁻¹

B4: D5-4 dimeric peptide, linker Bis-MAL-PEG3 (peptide)
peptide 1: [dY]WYYAWDQTYKAFPCG
peptide 2: [dY]WYYAWDQTYKAFPCG
modifications: thioether I:N-I:15, II:N-II:15 via Ac; not fully specified (N-terminus, bridges); also: dimer: two copies joined by Bis-MAL-PEG3 through an added C-terminal Cys (handle not in letters)
notes: Two macrocyclic peptides joined through their C-terminal Cys by Bis-MAL-PEG3; also called D5-4 Bis-MAL-PEG3; not shown: C-terminal handle of each copy (spacer residue plus Cys)
Kd (c-Met-Fc chimera protein [2]): 4.7 nM
koff (c-Met-Fc chimera protein [2]): 0.00054 s⁻¹
kon (c-Met-Fc chimera protein [2]): 120000 M⁻¹ s⁻¹

B5: D5-4 dimeric peptide, linker Bis-MAL-PEG11 (peptide)
peptide 1: [dY]WYYAWDQTYKAFPCG
peptide 2: [dY]WYYAWDQTYKAFPCG
modifications: thioether I:N-I:15, II:N-II:15 via Ac; not fully specified (N-terminus, bridges); also: dimer: two copies joined by Bis-MAL-PEG11 through an added C-terminal Cys (handle not in letters)
notes: Two macrocyclic peptides joined through their C-terminal Cys by Bis-MAL-PEG11; also called D5-4 Bis-MAL-PEG11; not shown: C-terminal handle of each copy (spacer residue plus Cys)
Kd (c-Met-Fc chimera protein [2]): 2.1 nM
koff (c-Met-Fc chimera protein [2]): 0.011 s⁻¹
kon (c-Met-Fc chimera protein [2]): 5.3e+06 M⁻¹ s⁻¹

B8: D5-4 (peptide)
peptide: {CH2CO}-[dY]WYYAWDQTYKAFPCG
modifications: thioether N-15
notes: also called D5-4 peptide; D5-4 Monomer
Kd (c-Met-Fc chimera protein [4]): 4.6 nM
koff (c-Met-Fc chimera protein [4]): 0.021 s⁻¹
kon (c-Met-Fc chimera protein [4]): 4.5e+06 M⁻¹ s⁻¹
Kd (c-Met-Fc chimera protein [2]): 4.6 nM
koff (c-Met-Fc chimera protein [2]): 0.021 s⁻¹
kon (c-Met-Fc chimera protein [2]): 4.5e+06 M⁻¹ s⁻¹

B11: N5, N-methylated D4-3 peptide (peptide)
peptide: {CH2CO}-YRQF[NMeN]RRTHEVWNLDCG
modifications: thioether N-16 (inferred)
Kd (c-Met-Fc chimera protein [1]): 200 nM
koff (c-Met-Fc chimera protein [1]): 0.0039 s⁻¹
kon (c-Met-Fc chimera protein [1]): 19000 M⁻¹ s⁻¹

B13: D4-3-N7 (peptide)
peptide: {CH2CO}-YRQFNR[NMeR]THEVWNLDCG
modifications: thioether N-16
Kd (c-Met-Fc chimera protein [1]): 130 nM

B14: N2, N-methylated D4-3 peptide (peptide)
peptide: {CH2CO}-Y[NMeR]QFNRRTHEVWNLDCG
modifications: thioether N-16 (inferred)
Kd (c-Met-Fc chimera protein [1]): 14 nM
koff (c-Met-Fc chimera protein [1]): 0.01 s⁻¹
kon (c-Met-Fc chimera protein [1]): 710000 M⁻¹ s⁻¹

Now from value to binder:

Kd (c-Met-Fc chimera protein [1]): 160 nM
koff (c-Met-Fc chimera protein [1]): 0.0086 s⁻¹
kon (c-Met-Fc chimera protein [1]): 55000 M⁻¹ s⁻¹
B1: N12, N-methylated D4-3 peptide (peptide)
peptide: {CH2CO}-YRQFNRRTHEV[NMeW]NLDCG
modifications: thioether N-16

Kd (c-Met-Fc chimera protein [1]): 10 nM
koff (c-Met-Fc chimera protein [1]): 0.01 s⁻¹
kon (c-Met-Fc chimera protein [1]): 980000 M⁻¹ s⁻¹
Kd (c-Met-Fc chimera protein [3]): 10 nM
koff (c-Met-Fc chimera protein [3]): 0.01 s⁻¹
kon (c-Met-Fc chimera protein [3]): 980000 M⁻¹ s⁻¹
B6: N16, N-methylated D4-3 peptide (peptide)
peptide: {CH2CO}-YRQFNRRTHEVWNLD[NMeC]G
modifications: thioether N-16 (inferred)

binding result (c-Met-Fc chimera protein [4]): no binding
B7: D4-3scr (peptide)
peptide: {CH2CO}-YERVNHLFRNQTWDRCG
modifications: thioether N-16
notes: Negative control; also called negative control peptide

Kd (c-Met-Fc chimera protein [1]): 300 nM
koff (c-Met-Fc chimera protein [1]): 0.0075 s⁻¹
kon (c-Met-Fc chimera protein [1]): 25000 M⁻¹ s⁻¹
B9: N10, N-methylated D4-3 peptide (peptide)
peptide: {CH2CO}-YRQFNRRTH[NMeE]VWNLDCG
modifications: thioether N-16

Kd (c-Met-Fc chimera protein [1]): 33 nM
koff (c-Met-Fc chimera protein [1]): 0.0026 s⁻¹
kon (c-Met-Fc chimera protein [1]): 78000 M⁻¹ s⁻¹
B10: N13, N-methylated D4-3 peptide (peptide)
peptide: {CH2CO}-YRQFNRRTHEVW[NMeN]LDCG
modifications: thioether N-16

Kd (c-Met-Fc chimera protein [1]): 160 nM
koff (c-Met-Fc chimera protein [1]): 0.046 s⁻¹
kon (c-Met-Fc chimera protein [1]): 300000 M⁻¹ s⁻¹
B12: N15, N-methylated D4-3 peptide (peptide)
peptide: {CH2CO}-YRQFNRRTHEVWNL[NMeD]CG
modifications: thioether N-16 (inferred)
